Reference: patent US20050037969A1 (ARBOR VITA, published 2005)
Ends that are not written are not given here. * marks the point of attachment. Biotin = O=C1N[C@H]2[C@H](CS[C@H]2CCCCC(=O)*)N1

How the values were obtained:
Experiment in all cases: A/G assays
[1] = target: T1, GST-MPP1 PDZ domain fusion protein (Homo sapiens (Human), UniProt Q00013 67-152)
T1 construct: also called p55; 55 Kd erythrocyte membrane protein; not shown: glutathione S-transferase encoded by vector pGEX-3X (Pharmacia)
T1 sequence: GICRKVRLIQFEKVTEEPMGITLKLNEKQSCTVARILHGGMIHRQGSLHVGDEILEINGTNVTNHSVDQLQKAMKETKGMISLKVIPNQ

[2] = target: T2, NSP PDZ-GST fusion protein (Homo sapiens (Human), UniProt Q92743 370-466)
T2 construct: The label NSP is not explained in the excerpts
T2 sequence (Q92743 other isoform, or with tags, fused parts or gaps limits assumed): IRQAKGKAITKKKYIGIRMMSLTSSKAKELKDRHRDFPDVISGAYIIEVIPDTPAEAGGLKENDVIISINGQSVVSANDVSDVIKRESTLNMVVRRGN

[3] = target: T3, GST-PDZK1 fusion protein (PDZ domains 2-4) (Homo sapiens, UniProt Q5T2W1 134-457)
T3 construct: not shown: glutathione S-transferase encoded by vector pGEX-3X (Pharmacia)
T3 sequence: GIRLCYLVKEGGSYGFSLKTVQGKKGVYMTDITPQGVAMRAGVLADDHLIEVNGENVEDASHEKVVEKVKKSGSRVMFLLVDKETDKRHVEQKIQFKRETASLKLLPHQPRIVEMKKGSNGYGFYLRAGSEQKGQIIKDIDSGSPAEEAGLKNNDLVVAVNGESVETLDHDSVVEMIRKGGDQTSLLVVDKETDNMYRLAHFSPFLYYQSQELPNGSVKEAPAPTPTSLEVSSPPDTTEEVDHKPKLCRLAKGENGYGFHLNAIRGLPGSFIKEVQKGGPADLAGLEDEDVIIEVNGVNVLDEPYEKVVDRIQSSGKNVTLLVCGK

[4] = target: T4, ConEn PDZ-GST fusion protein (Homo sapiens (Human), UniProt Q969H4 193-287)
T4 construct: The label ConEn is not explained in the excerpts
T4 sequence: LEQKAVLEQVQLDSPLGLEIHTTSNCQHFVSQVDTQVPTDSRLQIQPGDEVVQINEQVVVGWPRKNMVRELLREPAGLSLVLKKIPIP

[5] = target: T5, GST-TAX-IP40 PDZ domain fusion protein (human, UniProt Q6B4M5 150-252 (rat entry))
T5 construct: also called TAX40; not shown: glutathione S-transferase encoded by vector pGEX-3X (Pharmacia)
T5 sequence: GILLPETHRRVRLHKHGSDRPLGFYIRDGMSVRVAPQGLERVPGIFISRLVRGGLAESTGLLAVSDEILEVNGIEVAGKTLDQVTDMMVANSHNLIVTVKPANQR

[6] = target: T6, GST-prIL16 fusion protein (PDZ domains 1-2) (Homo sapiens (Human), UniProt Q14005 1111-1324)
T6 construct: also called putative interleukin 16 precursor; not shown: glutathione S-transferase encoded by vector pGEX-3X (Pharmacia)
T6 sequence: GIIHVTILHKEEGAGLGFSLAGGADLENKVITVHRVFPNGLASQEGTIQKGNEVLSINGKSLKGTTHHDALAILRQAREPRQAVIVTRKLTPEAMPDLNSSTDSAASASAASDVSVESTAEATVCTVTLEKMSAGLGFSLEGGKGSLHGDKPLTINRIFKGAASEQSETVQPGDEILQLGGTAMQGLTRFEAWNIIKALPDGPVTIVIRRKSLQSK

[7] = target: T7, GST-TAX-IP2 PDZ domain fusion protein (human, UniProt O14908 129-216)
T7 construct: also called TAX-1P2; TAX2; not shown: glutathione S-transferase encoded by vector pGEX-3X (Pharmacia)
T7 chain: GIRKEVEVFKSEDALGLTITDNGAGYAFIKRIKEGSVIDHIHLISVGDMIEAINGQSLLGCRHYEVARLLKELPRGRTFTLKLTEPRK

[8] = target: T8, GST-LIM protein PDZ domain fusion protein (Human, UniProt Q96HC4 2-85)
T8 construct: also called Human LIM protein; not shown: glutathione S-transferase encoded by vector pGEX-3X (Pharmacia)
T8 sequence: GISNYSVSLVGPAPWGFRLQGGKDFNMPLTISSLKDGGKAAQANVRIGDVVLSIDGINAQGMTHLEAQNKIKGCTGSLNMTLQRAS

[9] = target: T9, X11β PDZ-GST fusion protein (Rattus norvegicus (Rat), UniProt O35431 560-745)
T9 construct: Order of GST and PDZ part and limits not seen in the excerpts
T9 chain: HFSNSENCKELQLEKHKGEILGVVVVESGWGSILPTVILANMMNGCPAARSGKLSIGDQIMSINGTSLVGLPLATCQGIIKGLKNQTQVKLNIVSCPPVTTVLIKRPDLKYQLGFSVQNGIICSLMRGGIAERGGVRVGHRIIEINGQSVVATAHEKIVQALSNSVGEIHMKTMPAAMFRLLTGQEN

[10] = target: T10, GST-AF6 PDZ domain fusion protein (Homo sapiens (Human), UniProt P55196 1001-1093)
T10 construct: also called af-6 protein; not shown: glutathione S-transferase encoded by vector pGEX-3X (Pharmacia)
T10 sequence: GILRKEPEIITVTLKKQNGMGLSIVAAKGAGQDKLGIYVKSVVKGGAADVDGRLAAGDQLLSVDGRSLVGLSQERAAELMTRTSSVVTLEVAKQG

[11] = target: T11, GST-TIAM1 PDZ domain fusion protein (Homo sapiens (Human), UniProt Q13009 845-931)
T11 construct: also called TLAM1; T-lymphoma invasion and metastasis inducing protein 1; not shown: glutathione S-transferase encoded by vector pGEX-3X (Pharmacia)
T11 sequence (Q13009 other isoform, or with tags, fused parts or gaps): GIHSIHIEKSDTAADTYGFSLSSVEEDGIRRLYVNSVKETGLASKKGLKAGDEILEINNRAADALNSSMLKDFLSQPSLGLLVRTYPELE

[12] = target: T12, K858 PDZ-GST fusion protein (Homo sapiens (Human), UniProt Q8WWI1 1038-1131)
T12 construct: Order of GST and PDZ part and limits not seen in the excerpts
T12 sequence: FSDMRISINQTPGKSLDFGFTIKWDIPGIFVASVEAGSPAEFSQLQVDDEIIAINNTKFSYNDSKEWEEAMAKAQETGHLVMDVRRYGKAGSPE

[13] = target: T13, GST-cytohesin binding protein PDZ domain fusion protein (Homo sapiens (Human), UniProt O60759 74-165)
T13 construct: also called CBP; not shown: glutathione S-transferase encoded by vector pGEX-3X (Pharmacia)
T13 sequence: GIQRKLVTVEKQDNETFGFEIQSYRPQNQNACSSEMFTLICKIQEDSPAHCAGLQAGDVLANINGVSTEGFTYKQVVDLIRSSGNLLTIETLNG

[14] = target: T14, GST-RGS12 PDZ domain fusion protein (human, UniProt O14924 17-85)
T14 construct: also called human regulator of G-protein signalling 12; not shown: glutathione S-transferase encoded by vector pGEX-3X (Pharmacia)
T14 sequence: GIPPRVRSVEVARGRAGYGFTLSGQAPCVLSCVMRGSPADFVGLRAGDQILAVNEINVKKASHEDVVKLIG

Measured: binding result

Biotin-TTNNNPNSAVNIKKIFTDV [KV1.3 C-terminal peptide AA33L, biotinylated]
not listed: [14]
no binding: all other assays above

Biotin-TREDIYVNYPTFSRRPKTRV [DNAM-1 C-terminal peptide AA22L, biotinylated]
not listed: [1] | [8] | [10] | [14]
no binding: all other assays above

Biotin-ARKANMKGSYSLVEAQKSKV (also called CD106) [VCAM1 C-terminal peptide AA17L, biotinylated]
not listed: [1] | [11]
no binding: all other assays above

B1: Spectrin (beta) C-terminal peptide AA32L, biotinylated (peptide)
peptide: Biotin-SFPPCGHRENVPGQSLVSFV
notes: Marked (S), sticky; also called Spectrin beta (S); Spectrin β
not listed: [1] | [2] | [4] | [10] | [13]
no binding: all other assays above

Biotin-QGDPALQDAGDSSRKEYFI (also called GC) [Glycophorin C C-terminal peptide AA37L, biotinylated]
not listed: [1] | [10]
no binding: all other assays above

Biotin-KDSRPSFVGSSSGHTSTTL (also called CDW128E (IL8RB)) [CDW128B (IL8RB) C-terminal peptide AA29.2L, biotinylated]
not listed: [14]
no binding: all other assays above

Biotin-EVICYIEKPGVETLEDSVF [CDW125 (IL5R) C-terminal peptide AA28L, biotinylated]
not listed: [14]
no binding: all other assays above

Biotin-QFMTADETRNLQNVDMKIGV (also called CD44 (long form)) [CD44 C-terminal peptide AA9L, biotinylated]
not listed: [1] | [6]
no binding: all other assays above

Biotin-CAISGTSSDRGYGSPRYAEV (also called AA3L-V) [Clasp-4 C-terminal peptide AA3L, biotinylated]
not listed: [10]
no binding: all other assays above
